Here are results for four molecules from patent publication US9187762B2, “Compositions and methods comprising sequences having hydroxyphenylpyruvate dioxygenase (HPPD) activity” (PIONEER HI-BRED INTERNATIONAL, INC., priority 2010, dated 2015).

One data set relates to T0 soybean plants. The experiment in a line: Herbicide spray test of transgenic T0 HPPD soy plants using mesotrione, visual injury. Type of data set: in vivo. Particulars: mesotrione 210 g ai/ha, eight days after treatment. The text has this:
(1987) Nature 327:70-73, U.S. Pat. No. 4,945,050) using a DuPont Biolistic PDS1000/He instrument. A selectable marker gene used to facilitate soybean transformation was a chimeric gene composed of the 35S promoter from Cauliflower Mosaic Virus (Odell et al. (1985) Nature 313:810-812), the hygromycin phosphotransferase gene from plasmid pJR225 (from E coli; Gritz et al. (1983) Gene 25:179-188) and the 3' region of the nopaline synthase gene from the T-DNA of the Ti plasmid of Agrobacterium tumefaciens. Another selectable marker used to facilitate soybean transformation was a chimeric gene composed of the S-adenosylmethionine synthase (SAMS) promoter (U.S. Pat. […] Pat. […] The selection agent used during the transformation process was either hygromycin or chlorsulfuron depending on the marker gene present. […] Pat. […] (1995) Genetics 139 (2), 921-939; Genbank L05363). In specific constructs, the SCP1 promoter of U.S. Pat. No. 6,072,050 was employed. Bombardments were carried out with linear DNA fragments purified away from any bacterial vector DNA. […] Bombarded soybean embryogenic suspension tissue was cultured for one week in the absence of selection agent, then placed in liquid selection medium for 6 weeks. […] Putative transgenic suspension culture tissue was maintained in selection medium for 3 weeks to obtain enough tissue for plant regeneration. Suspension tissue was matured for 4 weeks using standard procedures; matured somatic embryos were desiccated for 4-7 days and then placed on germination induction medium for 2-4 weeks. Germinated plantlets were transferred to soil in cell pack trays for 3 weeks for acclimatization. Plantlets were potted to 10-inch pots in the greenhouse for evaluation of herbicide resistance. […] Some T0 plants were not sprayed with herbicide and were all advanced to the next generation for testing.

The next data set deals with soybean HPPD. The experiment in a line: HPPD activity, coupled assay with HGD; substrate saturation kinetics (KM, kcat). Particulars: substrate HPP; E. coli-expressed enzyme. Type of data set: biochemical. The text has this: (§1) HPPD catalyzes the conversion of 4-hydroxyphenylpyruvate (HPP) to homogentisate. See, FIG. 1. […] However, the product of the ensuing reaction in tyrosine metabolism, maleylacetoacetate, absorbs strongly at 320 nm. Furthermore, the enzyme catalyzing that reaction is also a dioxygenase having similar mechanism and buffer requirements as HPPD, making homogentisate dioxygenase (HGD) an ideal partner in a coupled assay, as shown.
(§2) The HDG gene from Pseudomonas aeruginosa (Amaya (2004) Arch Biochem Biophys 421, 135-142) was cloned into pVER7062 and electroporated into E. coli strain BL21(DE3). The enzyme was produced by methods similar to those described for HPPD. The purified enzyme has a KM for homogentisate of 23 uM and a kcat of 100/sec, properties highly suited for instantly converting the homogentisate produced by HPPD to maleylacetoacetate.
(§3) HPPD activity was measured by placing an aliquot (e.g., 6 ul) of the substrate HPP at 50-fold the desired final concentration into the wells of a low UV-absorbing assay plate. Reactions were started by adding a mixture (e.g., 294 ul) containing 25 mM Hepes, pH 7, 2 mM ascorbate, 10 uM FeSO4, 1 to 100 uM HPP, 50 nM HGD and 5 to 240 nM HPPD. Absorbance at 320 nm was monitored continuously in a plate-reading spectrophotometer (Spectramax, Molecular Devices).
(§4) The catalytic performance of wild-type HPPD and variants generated by shuffling was assessed by determining the substrate saturation parameters. The Michaelis-Menten kinetics protocol of the Spectramax software was customized for HPP concentrations ranging from 3.33 uM to 100 uM, or up to 1 mM if required. Reaction rates were measured as described above for each concentration of HPP. The software returns values of KM and Vmax using the Lineweaver-Burke transformation of the Michaelis-Menten equation.
The amino acid substitutions identified during the shuffling and mutagenesis of the maize HPPD gene can be made at analogous positions in other HPPD proteins to improve their insensitivity toward HPPD-inhibiting herbicides. The sequences of native and improved maize HPPD were aligned with those of sorghum (Genbank accession number XP002453359) and soybean (Genbank accession number ABQ96868), and the motif substitutions were designed accordingly, as shown in FIG. 14. The genes designed for improvement were synthesized commercially, inserted into vector pVER7062 and expressed, purified and evaluated as in Example 1.

The test system of data set [1] is maize HPPD. The experiment in a line: ON rate ratio, OFF rate ratio and insensitivity parameter with herbicidal HPPD inhibitors. It is filed as biochemical. Particulars: for ON rate ratio: mesotrione 4 uM, 100 uM HPP, 70 to 90 second interval. The text has this: To devise a parameter for detecting changes in inhibitor binding affinity, KD, one can utilize the relationship between KD and the rates of binding and release of inhibitor to and from the enzyme. [formula] Higher KD (reduced affinity or increased insensitivity) can be attained with a numerically smaller ON rate, a larger OFF rate or both. […] The ratio of the reaction rate with inhibitor to that without inhibitor during the 70 to 90 second interval of the reaction was termed the “ON rate ratio”. […] Incubations with the same concentrations of enzyme but no mesotrione were done in parallel. After 1 hr at room temperature, 5 to 10 ul of the enzyme-inhibitor complex was dispensed into the wells of the assay plate. Reactions were started with the addition of 290 to 295 ul of 25 mM Hepes, pH 7, 2 mM ascorbate, 10 uM FeSO4, 100 uM HPP and 50 nM HGD. The reactions were monitored at 320 nm for 12 min. Reaction velocity accelerates as inhibitor is released from the enzyme until a steady state is reached, during which the reaction velocity is constant. The ratio of the steady state rate in mixtures containing mesotrione (or other herbicidal inhibitor) to the initial velocity of mixtures lacking inhibitor is termed the “OFF rate ratio”. Another parameter to record is the time span required for the reactions with inhibitor to reach the steady state. […] It is not certain that the steady state attained in the OFF rate reactions actually represents an equilibrium where OFF rates are now equal to ON rates. Because substrate and inhibitors bind in the same site, the high concentration of substrate present may competitively trap the inhibitor and prevent it from binding again. To be sure that improvement in ON rates is being taken into account, the ON and OFF rate ratios were multiplied together and the product is termed the “insensitivity parameter”. […] The variants in Table 9 were grouped according to the parameter in which they are improved compared to wild type. The sequence positions are numbered according to the wild-type maize amino acid sequence of SEQ ID 1. Some substitutions are effective in multiple contexts, as discussed in the next section.

For data set [2], the system named is maize HPPD. The experiment in a line: HPPD activity, coupled assay with HGD at 320 nm; substrate saturation kinetics (KM, kcat). It is filed as biochemical.
Text: as §1, §2, §3, §4

The mark [3] stands for this setting: Elite soybean control, DNA none.
[4] abbreviates: substrate HPP, E. coli-expressed enzyme.

On to `CS(=O)(=O)c1ccc(C(=O)C2C(=O)CCCC2=O)c([N+](=O)[O-])c1` [mesotrione], for which the “Mean Soybean Response (% Injury)” value turned out to be 88% with T0 soybean plants (setting [3]) and 87% in the data set on T0 soybean plants (Jack soybean control, DNA none). Besides, the “Soybean % Injury Response Range” value is 80-95% in the data set with T0 soybean plants (setting [3]) and 75-95% in the data set with T0 soybean plants (Jack soybean control, DNA none).

B1: Soy wt: wild-type soybean HPPD protein, SEQ ID NO: 2, expressed in E. coli (protein)
chain: MAIPMCNEIQAQAQAQAQAQPGFKLVGFKNFVRTNPKSDRFQVNRFHHIEFWCTDATNASRRFSWGLGMPIVAKSDLSTGNQIHASYLLRSGDLSFLFSAPYSPSLSAGSSAASSASIPSFDAATCLAFAAKHGFGVRAIALEVADAEAAFSASVAKGAEPASPPVLVDDRTGFAEVRLYGDVVLRYVSYKDAAPQAPHADPSRWFLPGFEAAASSSSFPELDYGIRRLDHAVGNVPELAPAVRYLKGFSGFHEFAEFTAEDVGTSESGLNSVVLANNSETVLLPLNEPVYGTKRKSQIETYLEHNEGAGVQHLALVTHDIFTTLREMRKRSFLGGFEFMPSPPPTYYANLHNRAADVLTVDQIKQCEELGILVDRDDQGTLLQIFTKPVGDRPTIFIEIIQRIGCMVEDEEGKVYQKGACGGFGKGNFSELFKSIEEYEKTLEAKRTA
modifications: Glycine max
Usually Km stands for the substrate concentration at which the rate is half of its maximum. The term kcat denotes the maximal rate divided by the concentration of active sites. Regarding B1, in the data set with soybean HPPD, the Km was found to be 3 µM and the kcat is 1.67 s⁻¹.

B2: Maize wt: synthetic maize wild-type HPPD protein, SEQ ID NO: 1, expressed in E. coli (protein)
chain: MGPTPTAAAAGAAVAAASAAEQAAFRLVGHRNFVRFNPRSDRFHTLAFHHVELWCADAASAAGRFSFGLGAPLAARSDLSTGNSAHASLLLRSGSLSFLFTAPYAHGADAATAALPSFSAAAARRFAADHGLAVRAVALRVADAEDAFRASVAAGARPAFGPVDLGRGFRLAEVELYGDVVLRYVSYPDGAAGEPFLPGFEGVASPGAADYGLSRFDHIVGNVPELAPAAAYFAGFTGFHEFAEFTTEDVGTAESGLNSMVLANNSENVLLPLNEPVHGTKRRSQIQTFLDHHGGPGVQHMALASDDVLRTLREMQARSAMGGFEFMAPPTSDYYDGVRRRAGDVLTEAQIKECQELGVLVDRDDQGVLLQIFTKPVGDRPTLFLEIIQRIGCMEKDEKGQEYQKGGCGGFGKGNFSQLFKSIEDYEKSLEAKQAAAAAAAQGS
modifications: Zea mays
Take B2: the “Insensitivity parameter (ON rate ratio × OFF rate ratio) relative to that of maize wild-type HPPD” value in the data set with maize HPPD [1] (Isoxaflutole (diketonitrile)), in the data set with maize HPPD [1] (Sulcotrione), in the data set on maize HPPD [1] (Topramezone), with maize HPPD [1] (mesotrione) and in the data set with maize HPPD [1] (tembotrione) was 1.0 each time. Further, the “Triple product (ON rate ratio × OFF rate ratio × kcat), relative to that of maize wild-type HPPD” value in the data set with maize HPPD [1] (inhibitor Isoxaflutole (diketonitrile)), in the data set with maize HPPD [1] (inhibitor Mesotrione), with maize HPPD [1] (inhibitor Sulcotrione), with maize HPPD [1] (inhibitor Tembotrione) and in the data set with maize HPPD [1] (inhibitor Topramezone) was 1.0 in each case. The “ON × OFF × kcat” value with maize HPPD [1] (mesotrione) stood at 9.88. Besides, in the data set with maize HPPD [1] (mesotrione), the Vmax MT (maximum reaction rate attained with mesotrione in the determination of OFF rate ratio) turned out to be 52 min⁻¹. For the same molecule, the “insensitivity parameter (ON rate ratio × OFF rate ratio)” value with maize HPPD [1] (mesotrione) amounted to 0.049. For the same molecule, the ON rate ratio in the data set on maize HPPD [1] is 0.2; with maize HPPD [1] (listed as WT) it was 0.19. The OFF rate ratio in the data set with maize HPPD [1] (mesotrione, pre-formed enzyme-inhibitor complex) was 0.26. In addition, in the data set on maize HPPD [1] (release of mesotrione from pre-formed complex, enzyme 240 nM), the “time span to attain steady state in OFF rate reaction” value was determined as 280 s. Moreover, the “tolerance to mesotrione in T0 soybean plants” value in the data set with T0 soybean plants is given as “moderate tolerance”. In addition, the kcat was 2.77 s⁻¹ in the data set with maize HPPD [2] (N-terminal truncated variants of maize wild-type HPPD, single measurement); 3.45 s⁻¹ in the data set with maize HPPD [2] (setting [4]); “about 220 min^−1” in the data set on maize HPPD [2] (substrate HPP, E. coli-expressed enzyme, listed as wild type). Moreover, the Km with maize HPPD [2] (setting [4]) amounted to 5.2 µM.

B3: D0223961: shuffled maize HPPD variant used for chloroplast transformation (protein)
chain: MGPTPTATAAGAAVAAASAAEQAAFRLVGHRNFVRFNPRSDRFHTLAFHHVELWCADAASAAGRFSFALGAPLAARSDLSTGNSAHASLLLRSGSLSFLFTAPYAHGADAATAALPSFSAAAARRFAADHGLAVRAVALRVADAEDAFRASVAAGARPAFGPVDLGRGFRLAEVELYGDVVLRYVSYPDGAAGEPFLPGFEGVASPGAADYGLSRFDHIVGNVPELAPAAAYFAGFTGFHEFAEFTTEDVGTAESGLNSMALANNSENVLLPLNEPVHGTKRRSQIQTFLDHHGGPGVQHIALASDDVLRTLREMQARSAMGGFEFLPPPPSDYYDGVRRCAGDVLTEAQINECQELGVMVDRDDQGVLLQIFTKPVGDRPTFFLEIIQRIGCMEKDEKGQEYQKGGCGGFGKKNFGQLFKSIEDYEKSLEAKQAAAAATAQGS
modifications: HPPD variant
notes: shuffled maize HPPD variant used for chloroplast transformation
Regarding B3, in the data set with T0 soybean plants (T0 soybean plants expressing the HPPD gene variant (per DNA construct)), the “Soybean % Injury Response Range” value was 0-80%. Moreover, in the data set on T0 soybean plants (T0 soybean plants expressing the HPPD gene variant (per DNA construct), 0=no effect, 100=dead plant), the “Mean Soybean Response (% Injury)” value is listed as 26%. Besides, the kcat with maize HPPD [2] (variants truncated to ala20 vs full length) came to 1.77 ± 0.207 s⁻¹.
